Measured values reported in paper PMC5512084.

How the values were obtained:
[1] = molecular target: mononucleosome (calf thymus histone octamer assembled on 601 nucleosome positioning sequence DNA) (bovine (calf thymus))
[2] = molecular target: mononucleosome (calf thymus histone octamer assembled on 601 nucleosome positioning sequence DNA) (bovine (calf thymus)); assay: native gel or EMSA; 2 nM IRDYE-labeled mononucleosome with 50 bp of linker DNA on both ends, 2-fold dilution series of CHD enzyme; EMSA buffer (20 mM Tris HCl pH 8.0, 75 mM NaCl, 5 mM MgCl2), 30 min at 25 °C, 4% native PAGE

Row | Km of nucleosome-stimulated ATP hydrolysis (nucleosome concentration at half-maximal ATPase activation; mononucleosome with 50-bp linker DNA on both sides) [1] [nM] | fold affinity against the nucleosome with only one 100-bp DNA linker [2] [fold] | Substance
1 | 6 |  | CHD7 (from UniProt Q9P2D1 1-2997) (enzyme)
2 | 55 | 2 | CHD8 (from UniProt Q9HCK8 1-2581) (enzyme)

Row | Substance | Km of nucleosome-stimulated ATP hydrolysis (nucleosome concentration at half-maximal ATPase activation; mononucleosome with 50-bp linker DNA on both sides) [1] [nM] | fold affinity against the nucleosome with only one 100-bp DNA linker [2] [fold]
3 | CHD6 (from UniProt Q8TD26 1-2715) (enzyme) | 6 | 
